Assay results: PMC4935975, “A neomorphic cancer cell-specific role of MAGE-A4 in trans-lesion synthesis” (Nature Communications, 2016)

Target: T1, Hexa-histidine-tagged MAGE-A4 (human (open reading frame amplified …, UniProt P43358 1-317))
T1 construct: MAGE-A4, full-length recombinant; the MAGE-A4 open reading frame was PCR amplified from H1299 genomic DNA; Expressed from pRSET; also called His-MAGE-A4; 6 × His–MAGE-A4; source: E. coli BL21 (DE3), purified
T1 sequence (looked up): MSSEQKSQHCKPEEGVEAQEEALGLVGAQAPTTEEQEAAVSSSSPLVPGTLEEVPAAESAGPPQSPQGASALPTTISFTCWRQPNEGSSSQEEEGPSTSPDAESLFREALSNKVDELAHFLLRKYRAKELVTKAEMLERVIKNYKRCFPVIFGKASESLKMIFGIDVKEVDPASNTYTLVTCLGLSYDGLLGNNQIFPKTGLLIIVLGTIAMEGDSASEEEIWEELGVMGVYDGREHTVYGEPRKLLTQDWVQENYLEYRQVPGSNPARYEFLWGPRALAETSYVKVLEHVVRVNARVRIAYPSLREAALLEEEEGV
Assay: pull-down; recombinant 6 × His–MAGE-A4 (1 μg) incubated in 1 ml CSK+1% BSA with GST or GST–RAD18 (0.3 μg), 2 h at 4 °C; glutathione sepharose beads; washed three times in CSK+1% BSA; immunoblot
Conditions: both partners purified

binding result: binds
B1: GST–RAD18 267-402 (domain or fragment, UniProt Q9NS91 267-402, looked up)
chain: IQGNKQQLIKRHQEFVHMYNAQCDALHPKSAAEIVREIENIEKTRMRLEASKLNESVMVFTKDQTEKEIDEIHSKYRKKHKSEFQLLVDQARKGYKKIAGMSQKTVTITKEDESTEKLSSVCMGQEDNMTSVTNHF
notes: Expressed from pGEX2T; source: E. coli BL21 (DE3), purified
